One series deals with PPARγ expression. The series can be described thus: PPARγ expression in primary macrophages and monocytic cell lines. In kind it is cell-based. From the text:
PPARγ is expressed in a subset of macrophages and negatively regulates the expression of several pro-inflammatory genes in response to its ligands. We recently discovered the presence of PPARγ in human macrophages foam cells of human atherosclerotic lesions. In these cells, PPARγ is present in a pattern correlated with that of oxidation-specific epitopes. Oxidized low-density lipoprotein (LDL) and macrophage colony stimulating factor (MCSF) are known to be present in atherosclerotic lesions. […] Furthermore, phorbol esters induced PPARγ expression.

The next series has as its target T1, RXRalpha (Mus musculus, UniProt P28700 P28700:1-467).
T1 sequence: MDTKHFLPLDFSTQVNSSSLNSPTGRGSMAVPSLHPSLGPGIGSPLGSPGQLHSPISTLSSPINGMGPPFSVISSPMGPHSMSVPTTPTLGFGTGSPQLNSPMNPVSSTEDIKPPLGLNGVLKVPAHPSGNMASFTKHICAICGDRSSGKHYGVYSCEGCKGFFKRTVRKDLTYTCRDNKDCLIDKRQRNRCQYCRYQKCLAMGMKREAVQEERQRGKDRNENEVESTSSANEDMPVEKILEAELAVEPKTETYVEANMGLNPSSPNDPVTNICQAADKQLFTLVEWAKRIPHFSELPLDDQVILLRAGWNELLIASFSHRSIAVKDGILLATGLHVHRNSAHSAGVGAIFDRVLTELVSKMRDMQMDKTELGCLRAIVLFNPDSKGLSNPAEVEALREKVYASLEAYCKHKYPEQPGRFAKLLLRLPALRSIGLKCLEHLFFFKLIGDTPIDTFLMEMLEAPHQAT
The series can be described thus: EMSA; homodimer, no PPAR. To be noted: tags: rabbit reticulocyte lysate (Promega); label: 32P (T4-PNK). As to the method:
(§1) To analyze whether PPARγ could bind to a PPRE, classically composed of direct repeats spaced by one intervening nucleotide (DR-1), EMSA was performed using in vitro transcribed/translated PPARγ2 protein. An oligonucleotide containing a high affinity PPRE, previously identified in the apoA-II promoter J site, was used in EMSA (29).
(§2) 7. Electrophoretic Mobility Shift Assays (EMSA) and Oligonucleotide Sequences haPPARγ (39), hPPARγ2, and mRXRα (40) proteins were synthesized in vitro in rabbit reticulocyte lysate (Promega). Molecular weights and quality of the in vitro translated proteins were verified by SDS-PAGE. PPAR (2 μl) and/or RXR (2 μl) were incubated for 15 min on ice in a total volume of 20 μl with 1-ng probe, 2.5 μg of poly(dI-dC) and 1 μg of herring sperm DNA in binding buffer (10 mM Tris-HCl pH 7.9, 40 mMKCl, 10% glycerol, 0.05% Nonidet P-40, and 1 mM dithiothreitol). For competition experiments, increasing amounts (from 10- to 200-fold molar excess) of cold oligonucleotide (AII-J-PPRE, 5'-[…]-3' (41) SEQ ID NO: 24; acyl-CoA oxidase (ACO)-PPRE, 5'-[…]-3' (42) SEQ ID NO: 25; or LPL-PPRE, 5'-[…]-3 (23) SEQ ID NO: 26; were included just before adding T4-PNK end-labeled AII-J-PPRE oligonucleotide. DNA-protein complexes were separated by electrophoresis on a 4% polyacrylamide gel in 0.25×TBE buffer at 4° C. (43).
A general note: Mobility shift assays separate free from complexed probe on a gel.

Series [1] addresses PPARgamma/RXRalpha heterodimer (hamster haPPARgamma) (hamster / Mus musculus, UniProt P57797;P28700 P57797:1-475,P28700:1-467). Put plainly: EMSA; pH 7.9, 40 mM KCl, on ice. To be noted: tags: rabbit reticulocyte lysate (Promega); label: 32P (T4-PNK). The method, then:
as §1, §2

Series [2] concerns the target PPARgamma2/RXRalpha heterodimer (Homo sapiens / Mus musculus, UniProt P37231;P28700 P37231:1-505,P28700:1-467). Put plainly: EMSA; pH 7.9, 40 mM KCl, on ice; self-competition almost complete. To be noted: tags: rabbit reticulocyte lysate (Promega); label: 32P (T4-PNK). The method, then:
as §1, §2

In the next series the target is PPARgamma2 (Homo sapiens, UniProt P37231 P37231:1-505). Put plainly: EMSA; homodimer, no RXR. To be noted: tags: rabbit reticulocyte lysate (Promega); label: 32P (T4-PNK). The method, then:
as §1, §2

PPARgamma2/RXRalpha heterodimer, sequence (P37231 whole entry, one chain of several): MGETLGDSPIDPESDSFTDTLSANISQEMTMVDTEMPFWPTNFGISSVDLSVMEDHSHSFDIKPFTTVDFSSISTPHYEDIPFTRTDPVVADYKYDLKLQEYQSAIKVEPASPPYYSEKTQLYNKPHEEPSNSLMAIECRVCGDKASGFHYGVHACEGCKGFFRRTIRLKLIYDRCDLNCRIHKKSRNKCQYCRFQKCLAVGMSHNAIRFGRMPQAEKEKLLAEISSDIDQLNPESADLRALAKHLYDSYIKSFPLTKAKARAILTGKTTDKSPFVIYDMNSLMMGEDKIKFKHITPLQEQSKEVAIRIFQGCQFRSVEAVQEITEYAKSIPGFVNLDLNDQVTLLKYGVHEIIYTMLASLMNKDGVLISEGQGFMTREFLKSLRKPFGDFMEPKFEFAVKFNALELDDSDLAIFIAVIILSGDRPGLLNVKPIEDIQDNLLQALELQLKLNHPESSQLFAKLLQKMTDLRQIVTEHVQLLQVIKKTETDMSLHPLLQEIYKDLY
PPARgamma2, sequence (P37231 whole entry, one chain of several): as above

B1: MCSF: macrophage colony stimulating factor (protein, UniProt P09603 33-554, looked up)
Macrophage colony-stimulating …: EEVSEYCSHMIGSGHLQSLQRLIDSQMETSCQITFEFVDQEQLKDPVCYLKKAFLLVQDIMEDTMRFRDNTPNAIAIVQLQELSLRLKSCFTKDYEEHDKACVRTFYETPLQLLEKVKNVFNETKNLLDKDWNIFSKNCNNSFAECSSQDVVTKPDCNCLYPKAIPSSDPASVSPHQPLAPSMAPVAGLTWEDSEGTEGSSLLPGEQPLHTVDPGSAKQRPPRSTCQSFEPPETPVVKDSTIGGSPQPRPSVGAFNPGMEDILDSAMGTNWVPEEASGEASEIPVPQGTELSPSRPGGGSMQTEPARPSNFLSASSPLPASAKGQQPADVTGTALPRVGPVRPTGQDWNHTPQKTDHPSALLRDPPEPGSPRISSLRPQGLSNPSTLSAQPQLSRSHSSGSVLPLGELEGRRSTRDRRSPAEPEGGPASEGAARPLPRFNSVPLTDTGHERQSEGSFSPQLQESVFHLLVPSVILVLLAVGGLLFYRWRRRSHQEPQRADSPLEQPEGSPLTQDDRQVELPV
Take B1: the PPARγ expression entry in the series with PPARγ expression is “stimulate PPARγ expression”.

B2: apoA-II J site PPRE (dsDNA)
DNA 1: GATCCTTCAACCTTTACCCTGGTAGA
DNA 2: TCTACCAGGGTAAAGGTTGAAGGATC
As to B2, the binding result is “no binding” with RXRalpha, “binds” in series [1], “binds” in series [2] and “no binding” with PPARgamma2.

The record behind these values is patent US7098025B1, “Human peroxisome proliferator activated receptor gamma (pparγ) gene regulatory sequences and uses therefor” (Ligand Pharmaceuticals Incorporated, priority 1997, dated 2006).
